± gives the uncertainty stated by the source.

The data set can be described thus: amyloid nucleation score (Sup35N fusion, yeast selection) (log enrichment); library NNK3; higher = more nucleation; inactive = no reads after selection. The essentials:
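The nucleation score equals the log enrichment of output over input reads from DiMSum, centred on the mode score of non-aggregating sequences. It was computed only for sequences with 100 or more input reads. The reads came from Illumina sequencing of plasmid inserts from psi-negative yeast expressing Sup35N fused to peptides of 20 random codons, induced with 100 μM copper sulfate for 24 hours and grown 7 days at 30°C without adenine and uracil.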
On to VRMQLMWCGP, for which the amyloid nucleation score result is “inactive”. Under VRMVKYCLTLSSRTYCLIIM stands “inactive”; under VRREYDWMPHHWMGTGLCKC, “inactive”.

Consider VRVLWI, for which the amyloid nucleation score entry was “inactive”. On to VRVSNSFMTDTK, for which the amyloid nucleation score result is “inactive”. Then VRVTVLFEIHGDVCMLMSVA, with 0.827 ± 0.13; and VRYWTTPVL, with “inactive”; and VSALSGGFMENCCQSNFLTP, with “inactive”. Take VSDRCFKSTWSLMFYMGVVV: the amyloid nucleation score result was “inactive”. VSESSFRLCGGLRSGCLKSA: the amyloid nucleation score result was “inactive”.

As to VSFEFEIRESSGISCM, the amyloid nucleation score entry was “inactive”. VSFVSSVIVDGMPEILSIRY: the amyloid nucleation score result was “inactive”. In turn, VSLIVLVRSVCSCVTHSFYE showed an amyloid nucleation score of 2.08 ± 0.097. For the substance VSLRQVS, the amyloid nucleation score result was “inactive”. For the substance VSLVMSQVLRHHRCLLIYYL, the amyloid nucleation score entry is “inactive”. Under VSMIKRLGHCGVLGGKTYRV stands -0.671 ± 0.8; under VSSAMYYLFKGLAETLRYSS, “inactive”; under VSSCAC, “inactive”. For VSSKDGLFCCL, the amyloid nucleation score came out at 0.209 ± 0.66. Turning to VSVRYPLNKECFYDCL, the amyloid nucleation score result was “inactive”.

Take VSWNWATGLRFRPLSCYGLV: the amyloid nucleation score entry was “inactive”.

On to VSWVYRSGRFYDGVGVGYRT, for which the amyloid nucleation score result was “inactive”. Then VSYTRTIPLKGSNLMLIWF, with “inactive”. Then VSYWNEHHSEIVPLGCF, with “inactive”; and VTCCARTYYSWP, with “inactive”. Take VTCWGWSFAGGRHCQVEAGV: the amyloid nucleation score is -0.456 ± 0.96. VTFSSISHIRRYVSNHMCLG: the amyloid nucleation score entry was “inactive”. Then VTGNDQ, with “inactive”; and VTILMLNHYSYTSLLMRKFN, with 0.704 ± 0.12.

With VTLCLSKLAF, the amyloid nucleation score came to 1.26 ± 0.097. For VTLQSSSQVSSCVNNSR, the amyloid nucleation score entry was “inactive”.

Regarding VTNRIGLV, the amyloid nucleation score entry was “inactive”. Under VTQMKNTLY stands “inactive”. For the substance VTRGVLLCEPVTGMHQVACG, the amyloid nucleation score result is “inactive”. Substance VTRMDGYVAFISNHSFKSVY displayed an amyloid nucleation score of 1.36 ± 0.14. Turning to VTSGLERTMFSGNKRRIEVS, the amyloid nucleation score entry is “inactive”. Then VTSVHTALFSLQNDWNNKGD, with “inactive”.

For VTSVRPIYSRCLLNYMLRSV, the amyloid nucleation score result was “inactive”. Turning to VTTIVYDSYCPLPRCWTWVG, the amyloid nucleation score entry was “inactive”.

With VTTSMCAIQD, the amyloid nucleation score entry was “inactive”.

Consider VTVIYNVDYCKETIFQMVVT, for which the amyloid nucleation score came out at 0.124 ± 0.48. Then VTVMT, with “inactive”; and VTVQK, with “inactive”. Under VVCMDLCFLAGSSMSDLDGC stands “inactive”; under VVDCWSVKATSDSYDGMWGV, “inactive”; under VVDILFKMHEVDSVI, “inactive”. Under VVDLIRNCKDRTVDLLDGIA stands “inactive”. Consider VVDYTARWHRSYSSNGQRRM, for which the amyloid nucleation score entry is “inactive”. Under VVEPNTRVIWRLLHIDLDKQ stands “inactive”; under VVGRSCLFYSIVMY, 0.419 ± 0.67; under VVHNYEITWYHL, 1.99 ± 0.074.

As to VVILGLHRVVDRRNAKVAKL, the amyloid nucleation score entry is “inactive”. Regarding VVLCVLEYYKFF, the amyloid nucleation score is 0.848 ± 0.25. Then VVLFYDSCSG, with “inactive”; and VVLGADGRLPF, with “inactive”. On to VVLYRIGVLSN, for which the amyloid nucleation score result was “inactive”. As for VVNIRDATWAFKLLCGEAHV, the amyloid nucleation score result was “inactive”. In the case of VVNKPIHISSTYTLYSVVLA, the amyloid nucleation score entry is “inactive”. Under VVRLWE stands “inactive”; under VVSLPTNILSNTIGEYMEVQ, “inactive”; under VVSRVMTGSHHVRQFRM, “inactive”.

Consider VVVMPTNSECCYQYGGMFPM, for which the amyloid nucleation score entry was “inactive”. Substance VVVSSYNCVLVQVVICKWGR gave an amyloid nucleation score of 0.192 ± 0.85. Under VVWQTHQVHMVMYERVCTWD stands “inactive”; under VWDNMMIFLYWFFLKSCSHG, “inactive”. Under VWDRRK stands “inactive”; under VWDYLVAYYVALKNVTDSGQ, “inactive”; under VWFINFVCLFKGSLLCISES, “inactive”.

VWGLKFTRFVNTQLRRYPTL: the amyloid nucleation score entry is “inactive”. Under VWLMGMTYF stands “inactive”.

On to VWLWPI, for which the amyloid nucleation score result was “inactive”.

In the case of VWRWGDLNSSGCCMWSRLNM, the amyloid nucleation score was found to be 1.99 ± 0.1. Then VWVMSSWTVRIISPTVWMLV, with “inactive”. Under VWVRLTFKTSY stands 0.678 ± 0.16.

Take VYCFV: the amyloid nucleation score result was “inactive”. Then VYCSSVSCLEVWCGPLHTVR, with 1.53 ± 0.081.

In the case of VYFFSGLGTCD, the amyloid nucleation score entry was “inactive”. Then VYFGSINYRRGGGYGYHSVI, with 0.027 ± 0.71; and VYFLSVQLLYLFLSSALQRE, with “inactive”. Then VYFPTWFTLVFSPSKFWICI, with “inactive”; and VYHWFWMQRLNGWFENQQRK, with “inactive”; and VYIWRIMTTEIWVRVTWYAG, with “inactive”.

As to VYNQNAKVTN, the amyloid nucleation score result was “inactive”. Turning to VYRRGDIATLLNDI, the amyloid nucleation score entry was “inactive”. VYTGWKKVACNA returned an amyloid nucleation score of -0.211 ± 0.53. Then VYTRLVYIYQGVFCRIFSAC, with 1.86 ± 0.094; and VYVMRGSVIWLCRMSMGCCA, with “inactive”. Then VYVSCRMWNFRKMMMPV, with “inactive”; and VYWFKELADSITRCVKNYIY, with “inactive”; and VYYNSVNVLSVSGCRLDGLN, with 1.66 ± 0.11.

For WAGESLS, the amyloid nucleation score entry was “inactive”. Regarding WASLGINR, the amyloid nucleation score result was “inactive”. Regarding WAWNQSGFTPLYLCLEAWWS, the amyloid nucleation score entry was “inactive”. As to WAYRCTR, the amyloid nucleation score result was “inactive”. For the substance WCASMRNVCYFVVFMESKLS, the amyloid nucleation score is 0.294 ± 0.44.

As to WCCLETRLYL, the amyloid nucleation score was 1.5 ± 0.1. Then WCDLRFISWSFSVFWCV, with “inactive”; and WCGGDYVLKNGKFALGVVGS, with “inactive”.

The substance WCGQWWLLASGVQSFQCCVY showed an amyloid nucleation score of 1.39 ± 0.13. Regarding WCKCYMSSSWTC, the amyloid nucleation score result is “inactive”. In the case of WCLNGSMYLLAVSSG, the amyloid nucleation score result was “inactive”. Under WCRVIRTSGIYLGCASSGVV stands “inactive”; under WCTFKNLPLWYWTWCAFQGG, “inactive”. Regarding WCTSFGELEVYRVALILRTA, the amyloid nucleation score entry is “inactive”.

In the case of WDIWCRS, the amyloid nucleation score entry was “inactive”. Then WDYGKWE, with “inactive”. Then WEDMVDNHE, with 1.32 ± 0.087. Under WETFPHSFINVLIWDSFELV stands “inactive”.

As for WFAWIH, the amyloid nucleation score result was “inactive”. Under WFCLRTTVTPLDGFVLWYWE stands “inactive”; under WFFLGFVLIIKWLGLHQYSF, “inactive”.

As for WFGEYPQFWRARSYFRTSDW, the amyloid nucleation score entry is “inactive”. For WFGLIFFLICLYTPQLSLKL, the amyloid nucleation score entry was “inactive”. For the substance WFLFRINQFKL, the amyloid nucleation score entry is “inactive”. For WFLSLLSQLGYGQVFVDFIP, the amyloid nucleation score result is “inactive”. For WGLRFFIWQPRDMFSACCTC, the amyloid nucleation score was 1.6 ± 0.11. Under WGMLRTTT stands -0.567 ± 1.5; under WGSLMFRVYTKMFEALERVL, “inactive”. Under WGVSLLVFHVTKQVRNRFYY stands “inactive”; under WHNMSMMKSVPTYSGESHTR, 0.97 ± 0.18; under WHSMSCFSPKLGWDQFPVLR, “inactive”. In the case of WIGRTLLDSYDGRFSIAIRD, the amyloid nucleation score result is “inactive”. Under WIKLNLTYAHWWNMV stands “inactive”; under WILLGRSSQWSWASGGNSGQ, 1.5 ± 0.092.

Consider WILSYLDNCARSRQ, for which the amyloid nucleation score result is “inactive”. In turn, WIRYTFYQNFRIL had an amyloid nucleation score of -0.744 ± 0.8. With WISSGDIGRVVDWIQVCIEP, the amyloid nucleation score entry is “inactive”.

Take WISSSGIPFDRYLLWYNSVG: the amyloid nucleation score entry was “inactive”. In the case of WIYGYAVSLRSLYGLNLSM, the amyloid nucleation score result is “inactive”.

On to WKAFNVTPFRGWVNVAVLA, for which the amyloid nucleation score result was “inactive”. Turning to WLCWQHSDLMNRDCNGLTLG, the amyloid nucleation score result is “inactive”. Then WLESHGDHGFNEKDSWWPYF, with “inactive”.

Values taken from the supplement of paper PMC12042874.
